T1: APRIL, soluble form (Homo sapiens (Human), UniProt O75888 105-250)
T1 sequence: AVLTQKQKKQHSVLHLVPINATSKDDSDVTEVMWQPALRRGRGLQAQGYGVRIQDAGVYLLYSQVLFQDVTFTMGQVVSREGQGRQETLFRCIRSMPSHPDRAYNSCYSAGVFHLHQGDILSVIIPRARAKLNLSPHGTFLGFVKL


What was measured:
APRIL, soluble form = biological target: T1, APRIL, soluble form; assay: phage display panning on soluble APRIL, rounds two and three
Text: (§1) In a specific embodiment, antibodies of the present invention cross react with APRIL (SEQ ID NO:3239; GenBank Accession No. AF046888; J. Exp. Med. 188(6):1185-1190; PCT International Publication WO97/33902). […] These scFvs were isolated by panning a phage scFv library comprising VH and VL domains obtained from human bone marrow B cells (BM library). Phage from the BM phage library were first selected for binding to soluble B Lymphocyte Stimulator (amino acids 134-285 of SEQ ID NO:3228). A second round of selection for binding to the soluble form of APRIL (amino acids 105-250 of SEQ ID NO:3239) was then performed on the B Lymphocyte Stimulator binding phage selected in round one. A third round of selection for binding to the soluble form of APRIL (amino acids 105-250 of SEQ ID NO:3239) was then performed on the phage selected in round two. A final (fourth) round of selection for binding to the soluble form of B Lymphocyte Stimulator (amino acids 134-285 of SEQ ID NO:3228) was then performed on the phage selected in round three. Phage clones that bound B Lymphocyte Stimulator in the fourth round of selection were eluted with either 0.1M triethylamine (TEA) or with a TACI-Fc fusion protein (e.g., the extracellular domain of TACI (amino acids 31 to 159 of Genbank Accession No. AAC51790) fused to Fc).

[1] = biological target: T2, B Lymphocyte Stimulator, soluble form (human) (human, UniProt Q9Y275 134-285, biotinylated with NHS-biotin where used as biotinylated B Lymphocyte Stimulator); assay: phage display panning on soluble BLyS
T2 construct: Coated on plastic, captured on streptavidin plates, amine-coupled to a CM5 chip or free in solution, depending on the assay; also called BLyS; immobilized B Lymphocyte Stimulator
Text: as §1

[2] = biological target: T3, HIS-tagged B Lymphocyte Stimulator (human, UniProt Q9Y275 71-285); assay: BIAcore, periplasmic scFv on high density HIS-BLyS surface
T3 construct: Expressed in E. coli from pQE9 and purified; also called histidine-tagged B Lymphocyte Stimulator; HIS-B Lymphocyte Stimulator; not shown: histidine tag of the pQE9 vector
Description: All BIAcore analysis was performed on BIAcore 2000 machines, using the BIAcore 2000 control software and evaluated using the BIAevaluation 3.0 software. A high density His-tagged B Lymphocyte Stimulator surface (>1000 RU HIS-B Lymphocyte Stimulator coupled) was prepared in flow cell 2 by amine coupling to a CM5 chip. A new CM5 chip was inserted into the BIAcore and a sensorgram started over flow cell 2 with HBS buffer at a flow rate of 5 μl/min. The NHS and EDC solution were mixed 1:1 before injecting 30 μl over the CM5 surface. Fifty μl HIS-B Lymphocyte Stimulator (at 10 μg/ml in Sodium acetate buffer, pH4) was injected and allowed to couple to the surface. Thirty μl of ethanolamine-HCl solution was then injected to block free NHS esters. Prior to using the chip, 10 μl of 4M Guanidine hydrochloride in HBS was injected over the surface to strip the surface of non-covalently bound B Lymphocyte Stimulator. A blank surface (no HIS-B Lymphocyte Stimulator) was also prepared over flow cell 1 so that non-specific binding effects can be subtracted from the HIS-B Lymphocyte Stimulator binding curves.
The 96-well plate containing periplasmic scFvs was secured inside the BIAcore. Two ml of 4M Guanidine hydrochloride in HBS was placed in a rack inside the BIAcore for regeneration of the HIS-B Lymphocyte Stimulator surface between samples. The sensorgram was run over flow cells 1 and 2 at a flow rate of […].

[3] = biological target: T4, B Lymphocyte Stimulator, soluble form (human, UniProt Q9Y275 134-285); assay: BIAcore, IgG1 captured on low-density Protein A, BLyS flowed over; mean ± SD
T4 construct: also called BLyS; Neutrokine-alpha
Description: Briefly, antibodies were captured on low-density Protein A surfaces and B Lymphocyte Stimulator was passed over at various flow rates. The binding of B Lymphocyte Stimulator to immobilized antibody was detected by changes in […] that were proportional to the amount of bound B Lymphocyte Stimulator. Binding values were calculated using software provided by the manufacturer.

Row | Binder | binding result (APRIL, soluble form) | binding result [1] | also measured
1 | BAB2087 (scFv) scFv: QVQLVQSGAEVKKPGASVKVSCKASGFAFSSYDINWVRQAPGQGLEWMGWMNPKSGKTGYAQNFQGRVTMTRNTSISTAYMELSSLKSEDTAVYFCARGFTGYDILTDYYSVDYFDSWGRGTLVTVSSGGGGSGGGGSGGGGSALPVLTQPPSVSVAPGQTARITCGGSSIGRKSVHWYQQSPGQAPVLVVYDDSDRPSGIPERFSGSNSGDTATLTISRVEVGDEADYYCQVWDINSDHVVFGGGTKLTVLG | binds | binds | 
2 | BAB2015 (scFv) scFv: QVQLVQSGAEVKKPGSSVKVSCKASGGTLGNYGISWVRQAPGQGLEWMGAIIPNFGTTNYVQKFQGRVTMTTDTSTSTAYMELRSLRSDDTAVYYCARGASSGWYDYYYYMDVWGKGTMVTVSSGGGGSGGGGSGGGGSDIQMTQSPSTLSASIGDRVTITCRASEGIYHWLAWYQQKPGKAPKLLIYKASSLASGAPSRFSGSGSGTDFTLTISSLQPDDFATYYCQQYSNYPLTFGGGTKLEIRR | binds | binds | 
3 | BAB2016 (scFv) scFv: EVQLVQSGGGLVQPGGSLRLSCAASGFTFSSYWMSWVRQAPGKGLEWVANIKQDGSGKYYVDSVKGRFTISRDNAKNSLYLQMNSLRAEDTAVYYCARDPRYDILTGYLYGMDVWGQGTMVTVSSGGGGSGGGGSGGGGSQSVLTQPASVSGSPGQSITISCTGTSSDVGGYNYVSWYQQHPGKAPKLMIYEGSKRPSGVSNRFSGSKSGNTASLTISGLQAEDEADYYCSSYTTRSTRVFGGGTKLTVLG | binds | binds | 
4 | BAB2034 (scFv) scFv: QVQLQQSGPGLVKPSQTLSLTCAISGDSVSSNSAAWNWIRQSPSRGLEWLGRTYYRSKWYNDYAVSVKSRITINPDTSKNQFSLQLNSVTPEDTAVYYCAREGAHYDILTGHNYYHYGMDVWGQGTMVTVSSGGGGSGGGGSGGGGSQSVLTQPPSASGSPGQSVTISCTGTSSDVGGYNYVSWYQQHPGKAPKFMIYDVSKRPSGVSNRFSGSKSGNTASLTISGVQAEDEADYYCSSYTSASTVIFGGGTKLTVLG | binds | binds | 
5 | BAB2080 (scFv) scFv: KVQLVQSGGGLVKPGGSLRLSCAASGFTFSNYGMHWVRQAPGKGLEWVALISYDGSNKYYADSVKGRFTISRDNSKNTLYLQMNSLRAEDTAVYYCAKLNSLRGGHDYWGRGTLVTVSSGGGGSGGGGSGGGGSQSVLTQPPSVSAAPGQKVTISCSGSTSNIGNNYVSWYQQHPGKAPKLMIYDVSKRPSGVPDRFSGSKSSNSASLDISGLQSEDEADYYCAAWDDSLSEFLFGTGTKLTVLG | binds | binds | 
6 | I084C11 (scFv) scFv: GVQLEESGAEVKKPGASVKVSCKASGYTFTGYYMHWVRQAPGQGLEWMGWINPNSGGTNYAQKFQGRVTMTRDTSISTAYMELSRLRSDDTAVYYCARGNAWGAFDIWGRSTLVTVSSGGGGSGGGGSGGGGSQSVLTQPASVSGSPGQSITISCTGTSSDVGGYNYVSWYQQHPGKAPKLMIYEGSKRPSGVSNRFSGSKSGNTASLTVSGLQAEDEADYYCSSYTTRSTRVFGGGTKLTVLG |  |  | binding result [2]: binds
7 | BAB2001 (scFv) scFv: GVQLVQSGAEVRKPGASVKVSCKPSGYPFSGNYIHWVRQAPGQGPEWMGWINPNSGDTKYSQKFQGWVTMTRDTSVSTVYMELNRLKSDDTAIYYCAREQYDTLTGSPYGMDVWGKGTLVTVSSGGGGSGGGGSGGGGSDIQMTQSPSTLSASIGDRVTITCRASQGINNYLAWYQQKPGRAPKLLIYAASSLQSGVPSRFSGSGSGTDFTLTISSLQPEDFATYYCLQDSDYPLTFGGGTKLEIKR | binds | binds | 
8 | BAB2019 (scFv) scFv: EVQLVQSGAEVKKPGASVKVSCKASGYTFTSSGISWVRQAPGQGLEWMGWINGYNGNTKYAQKFQGRVTMTTDTSTTTAYMELRSLRSDDTAVYYCARDSYDILTDYYNMIMDVWGQGTLVTVSSGGGGSGGGGSGGGGSQSVLTQPASVSGSPGQSITISCTGTSSDVGGYNYVSWYQQHPGKAPKLMIYEGSKRPSGVSNRFSGSKSGNTASLTISGLQAEDEADYYCSSYTTRSTRVFGGGTKLTVLG | binds | binds | 
9 | I080A08 (scFv) scFv: QVTLKESGGDLVQPGGSLRLSCAASGLTFMSYAMTWVRQAPGKGLEWVSSISGSGDNTYYGDSVRGRFTISRDNSKNTLFLQLNSLRAEDTAFYYCAKVHSTGYAFENWGRGTLVTVSSGGGGSGGGGSGGGGSAQSVLTQPPSVSGAPGQRVTISCTGSSSNIGAGYNVHWYQQLPGTAPRLLISSNTNRPSGVPDRFSGSKSGTSASLAITGLQAEDEADYYCQSYDSSLSGFVFGTGTKVTVLG |  |  | binding result [2]: binds
10 | I116A01 IgG1 (antibody, V domains shown) VH: QVQLQQSGAEVKKPGSSVRVSCKASGGTFNNNAINWVRQAPGQGLEWMGGIIPMFGTAKYSQNFQGRVAITADESTGTASMELSSLRSEDTAVYYCARSRDLLLFPHHALSPWGRGTMVTVSS VL: SSELTQDPAVSVALGQTVRVTCQGDSLRSYYASWYQQKPGQAPVLVIYGKNNRPSGIPDRFSGSSSGNTASLTITGAQAEDEADYYCSSRDSSGNHWVFGGGTELTVLG |  |  | Kd [3]: 0.267 nM; koff [3]: 0.000332 s⁻¹; kon [3]: 1.26e+06 M⁻¹ s⁻¹
11 | I006D08 IgG1 (antibody, V domains shown) VH: QVQLQQSGAEVKKPGSSVRVSCKASGGTFNNNAINWVRQAPGQGLEWMGGIIPMFGTAKYSQNFQGRVAITADESTSTASMELSSLRSEDTAVYYCARSRDLLLFPHYGMDVWGRGTMVTVSS VL: SSELTQDPAVSVALGQTVRVTCQGDSLRSYYASWYQQKPGQAPVLVIYGKNNRPSGIPDRFSGSSSGNTASLTITGAQAEDEADYYCNSRDSSGNHWVFGGGTELTVLG |  |  | Kd [3]: 0.498 nM; koff [3]: 0.00058 s⁻¹; kon [3]: 1.43e+06 M⁻¹ s⁻¹
12 | BAB2065 (scFv) scFv: GVQLVQSGAEVKKPGASVKVSCKASGYTFTKYTMHWVRQAPGQGPEWMGWINGGSGDTKYSRKFQGRVTITKDTSASAAYMELSSLGSEDTALYYCARATYDPLTGYSFDGFDIWGQGTMVTVSSGGGGSGGGGSGGGGSSELTQPASVSGSPGQSITISCTGTSSDVGGYNYVSWYQQHPGKAPKLMIYEGSKRPSGVSNRFSGSKSGNTASLTISGLQAEDEADYYCSSYTTRSTRVFGGGTKLTVLG | binds | binds | 

Source: patent US20110293610A1 (published 2011)
